Non-standard residues stand in square brackets, D forms with d. Primed or numbered codes have the meaning given here. No end group written: not given here. Lys(Me3) = C[N+](C)(C)CCCC[C@H](N)C(=O)O; Me3″ = trimethyl-lysine
T1: Wild-type Sgf29 (SAGA-associated Factor 29) tandem tudor domain, residues 115-293 (human, UniProt Q96ES7 115-293)
T1 construct: also called WT Sgf29; WT; source: E. coli Rosetta BL21 DE3 PlysS, purified (Ni-NTA, TEV cleavage, SEC Superdex 75)
T1 sequence (looked up): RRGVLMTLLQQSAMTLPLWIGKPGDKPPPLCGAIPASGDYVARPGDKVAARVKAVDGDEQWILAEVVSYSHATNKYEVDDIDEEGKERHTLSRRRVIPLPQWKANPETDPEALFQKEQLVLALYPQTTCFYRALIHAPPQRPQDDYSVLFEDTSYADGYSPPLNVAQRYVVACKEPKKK

B1: 10-mer H3K4me3 peptide that contains G instead of R at position 8 (ARTKme3QTAGKS) (peptide)
peptide: ART[Lys(Me3)]QTAGKS
notes: The synthesis is described only for the two native 10-mer peptides
B2: 7-mer H3K4me3 peptide ARTKme3QTA (peptide)
peptide: ARTK(Me3″)QTA
notes: histone H3 N-terminal tail, 7-mer, K4 trimethylated, lacks the last three residues of the 10-mer; The synthesis is described only for the two native 10-mer peptides; also called 7-mer peptide
B3: WT: Wild-type Sgf29 reader domain protein (Homo sapiens, residues 115–293) (protein)
chain: RRGVLMTLLQQSAMTLPLWIGKPGDKPPPLCGAIPASGDYVARPGDKVAARVKAVDGDEQWILAEVVSYSHATNKYEVDDIDEEGKERHTLSRRRVIPLPQWKANPETDPEALFQKEQLVLALYPQTTCFYRALIHAPPQRPQDDYSVLFEDTSYADGYSPPLNVAQRYVVACKEPKKK
modifications: left off: 6xHis, end not stated, cleaved
B4: D266A: Sgf29 variant, D266 substituted by alanine (protein)
chain: RRGVLMTLLQQSAMTLPLWIGKPGDKPPPLCGAIPASGDYVARPGDKVAARVKAVDGDEQWILAEVVSYSHATNKYEVDDIDEEGKERHTLSRRRVIPLPQWKANPETDPEALFQKEQLVLALYPQTTCFYRALIHAPPQRPQDDYSVLFEATSYADGYSPPLNVAQRYVVACKEPKKK
modifications: left off: 6xHis, end not stated, cleaved
notes: Sgf29 variant, D266 substituted by alanine
B5: Y238F: Sgf29 variant, Y238 substituted by phenylalanine (protein)
chain: RRGVLMTLLQQSAMTLPLWIGKPGDKPPPLCGAIPASGDYVARPGDKVAARVKAVDGDEQWILAEVVSYSHATNKYEVDDIDEEGKERHTLSRRRVIPLPQWKANPETDPEALFQKEQLVLALFPQTTCFYRALIHAPPQRPQDDYSVLFEDTSYADGYSPPLNVAQRYVVACKEPKKK
modifications: left off: 6xHis, end not stated, cleaved
notes: Sgf29 variant, Y238 substituted by phenylalanine
B6: D266W: Sgf29 variant, D266 substituted by tryptophan (protein)
chain: RRGVLMTLLQQSAMTLPLWIGKPGDKPPPLCGAIPASGDYVARPGDKVAARVKAVDGDEQWILAEVVSYSHATNKYEVDDIDEEGKERHTLSRRRVIPLPQWKANPETDPEALFQKEQLVLALYPQTTCFYRALIHAPPQRPQDDYSVLFEWTSYADGYSPPLNVAQRYVVACKEPKKK
modifications: left off: 6xHis, end not stated, cleaved
notes: Sgf29 variant, D266 substituted by tryptophan
B7: D266E: Sgf29 variant, substitution of D266 by glutamic acid (protein)
chain: RRGVLMTLLQQSAMTLPLWIGKPGDKPPPLCGAIPASGDYVARPGDKVAARVKAVDGDEQWILAEVVSYSHATNKYEVDDIDEEGKERHTLSRRRVIPLPQWKANPETDPEALFQKEQLVLALYPQTTCFYRALIHAPPQRPQDDYSVLFEETSYADGYSPPLNVAQRYVVACKEPKKK
modifications: left off: 6xHis, end not stated, cleaved
notes: Sgf29 variant, substitution of D266 by glutamic acid
B8: D266Y: Sgf29 variant, D266 substituted by tyrosine (protein)
chain: RRGVLMTLLQQSAMTLPLWIGKPGDKPPPLCGAIPASGDYVARPGDKVAARVKAVDGDEQWILAEVVSYSHATNKYEVDDIDEEGKERHTLSRRRVIPLPQWKANPETDPEALFQKEQLVLALYPQTTCFYRALIHAPPQRPQDDYSVLFEYTSYADGYSPPLNVAQRYVVACKEPKKK
modifications: left off: 6xHis, end not stated, cleaved
notes: Sgf29 variant, D266 substituted by tyrosine
B9: D266N: Sgf29 variant, D266 substituted by asparagine (protein)
chain: RRGVLMTLLQQSAMTLPLWIGKPGDKPPPLCGAIPASGDYVARPGDKVAARVKAVDGDEQWILAEVVSYSHATNKYEVDDIDEEGKERHTLSRRRVIPLPQWKANPETDPEALFQKEQLVLALYPQTTCFYRALIHAPPQRPQDDYSVLFENTSYADGYSPPLNVAQRYVVACKEPKKK
modifications: left off: 6xHis, end not stated, cleaved
notes: Sgf29 variant, D266 substituted by asparagine
B10: Y245F: Sgf29 variant, Y245 substitution (Y245F) (protein)
chain: RRGVLMTLLQQSAMTLPLWIGKPGDKPPPLCGAIPASGDYVARPGDKVAARVKAVDGDEQWILAEVVSYSHATNKYEVDDIDEEGKERHTLSRRRVIPLPQWKANPETDPEALFQKEQLVLALYPQTTCFFRALIHAPPQRPQDDYSVLFEDTSYADGYSPPLNVAQRYVVACKEPKKK
modifications: left off: 6xHis, end not stated, cleaved
B11: D266F: Sgf29 variant, D266 substituted by phenylalanine (protein)
chain: RRGVLMTLLQQSAMTLPLWIGKPGDKPPPLCGAIPASGDYVARPGDKVAARVKAVDGDEQWILAEVVSYSHATNKYEVDDIDEEGKERHTLSRRRVIPLPQWKANPETDPEALFQKEQLVLALYPQTTCFYRALIHAPPQRPQDDYSVLFEFTSYADGYSPPLNVAQRYVVACKEPKKK
modifications: left off: 6xHis, end not stated, cleaved
notes: Sgf29 variant, D266 substituted by phenylalanine

What was measured:
[1] = target: T1, Wild-type Sgf29 (SAGA-associated Factor …); experiment: ITC; peptide (generally 1.2 mM) titrated to protein (100 uM); for variants of low affinity 2.4 mM peptide to 200 uM protein; 25 mM TRIS pH 8.0, 50 mM NaCl, 1 mM DTT; one-site model; settings: both partners purified
[2] = Differential scanning fluorimetry (DSF) melting temperature of Sgf29 and variants; type: physicochemical, Homo sapiens; settings: for Tm: SYPRO-Orange fluorescence, 25 mM TRIS pH 7.5, 50 mM NaCl, 1 mM DTT, 2.5 μl of 25 μM protein in 25 μl, 20–95°C, 1°C min^-1, ± SD, measured in triplicate
Experimental: Wild-type and variant Sgf29 reader domain proteins (Homo sapiens, residues 115–293) were expressed in terrific broth (TB) medium containing 50 μg ml^-1 kanamycin, using E. coli Rosetta BL21 DE3 PlysS as expression host. Bacteria were cultured to OD600 ≈ 0.6 at 37°C, 200 rpm after which the cultures were induced using 1 mM IPTG (final conc.). Cultures were then incubated at 16°C for 16 hours. Cells were harvested and lysed by sonication in 1x PBS, 250 mM NaCl, 5% glycerol, 0.2% CHAPS, 10mM β-mercaptoethanol. Lysate was centrifuged and the supernatant purified using Ni-NTA beads. The 6xHis tag was cleaved off overnight at 4°C using TEV-protease. Size exclusion chromatography, using a superdex 75 column, was employed as a final purification step with 25 mM TRIS pH 8.0, 50 mM NaCl, 1 mM DTT as eluent. Protein concentrations were determined by UV/Vis spectroscopy at 280 nm.
Sgf29 protein melt curves were obtained as described by Reinhard et. al. using a StepOne-Plus Real-Time PCR system (Applied Biosystems) and MicroAmp fast optical 96-well reaction plates (Applied Biosystems). SYPRO-Orange protein gel stain (Invitrogen) was used as a reporter dye, emitting fluorescence in the FAM channel. Total reaction volume was 25 μl; 20 μl buffer (25 mM TRIS pH 7.5, 50 mM NaCl, 1 mM DTT), 2.5 μl of 25 μM protein and 2.5 μl SYPRO-Orange dye (diluted 1:100 in ddH2O). Melt curve data were obtained in triplicate, in a temperature range of 20–95°C at a step-wise temperature increment of 1°C min^-1. Obtained data were analyzed using DSF Analysis v3.0.2 software, designed by Niesen et. al. (available via ftp://ftp.sgc.ox.ac.uk/pub/biophysics/).

Row | Molecule | Tm [2] [°C] | also measured
1 | B1 | – | Kd [1]: 4 ± 0.6 µM; dH [1]: -8 ± 0.1 kcal/mol
2 | B2 | – | Kd [1]: 9 ± 0.5 µM; dH [1]: -7.8 ± 0.1 kcal/mol
3 | B3 | 57.8 ± 0.1 | Tm ([2]; listed as WT Sgf29): 57.8 °C
4 | B4 | 55.8 ± 0.3 | –
5 | B5 | 56.5 ± 0.2 | –
6 | B6 | 55.5 ± 0.1 | decrease in Tm relative to WT Sgf29 [2]: 2.3 °C
7 | B7 | 57.7 ± 0.1 | –
8 | B8 | 54.5 ± 0.2 | decrease in Tm relative to WT Sgf29 [2]: 3.9 °C
9 | B9 | 56.4 ± 0.1 | –
10 | B10 | 56.4 ± 0.1 | –
11 | B11 | 53.9 ± 0.5 | decrease in Tm relative to WT Sgf29 [2]: 3.3 °C
